Assay results published in paper PMC6535971 (ACS Central Science, 2019).
Where no end group is shown, it is not given here.

Experiments:
[1] = system: MkYcaO; test: Cyclodehydration reaction, MALDI-TOF-MS; assay type: biochemical, Methanopyrus kandleri; conditions: pH 7.0 with additional phosphate
[2] = target: T1, MjYcaO (Methanocaldococcus jannaschii, UniProt Q58494); test: Cyclodehydration reaction, MALDI-TOF-MS; assay type: biochemical; conditions: wild-type MjYcaO and ATP at pH 7.5, no added anion
T1 sequence (Q58494 1-385): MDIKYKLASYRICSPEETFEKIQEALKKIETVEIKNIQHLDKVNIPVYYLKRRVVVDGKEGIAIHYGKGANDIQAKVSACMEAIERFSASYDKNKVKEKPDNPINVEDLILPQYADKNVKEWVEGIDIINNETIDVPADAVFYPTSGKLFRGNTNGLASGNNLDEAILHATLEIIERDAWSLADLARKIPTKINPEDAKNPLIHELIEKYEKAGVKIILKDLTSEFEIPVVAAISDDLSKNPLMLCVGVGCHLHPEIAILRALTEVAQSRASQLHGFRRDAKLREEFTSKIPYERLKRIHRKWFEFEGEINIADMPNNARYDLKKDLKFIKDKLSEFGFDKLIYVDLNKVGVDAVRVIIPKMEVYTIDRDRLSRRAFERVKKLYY

[3] = target: T1, MjYcaO; test: Competition FP binding assay; conditions: competitive FP, MBP-tagged 11-mer variant against FITC-labeled 11-mer peptide
[4] = target: Methanocaldococcus jannaschii YcaO (MjYcaO), wild type (Methanocaldococcus jannaschii) (UniProt Q58494); test: fluorescence polarisation
[5] = target: T2, Methanocaldococcus jannaschii YcaO (MjYcaO), wild type (Methanocaldococcus jannaschii, UniProt Q58494 1-385); test: crystal structure
T2 sequence: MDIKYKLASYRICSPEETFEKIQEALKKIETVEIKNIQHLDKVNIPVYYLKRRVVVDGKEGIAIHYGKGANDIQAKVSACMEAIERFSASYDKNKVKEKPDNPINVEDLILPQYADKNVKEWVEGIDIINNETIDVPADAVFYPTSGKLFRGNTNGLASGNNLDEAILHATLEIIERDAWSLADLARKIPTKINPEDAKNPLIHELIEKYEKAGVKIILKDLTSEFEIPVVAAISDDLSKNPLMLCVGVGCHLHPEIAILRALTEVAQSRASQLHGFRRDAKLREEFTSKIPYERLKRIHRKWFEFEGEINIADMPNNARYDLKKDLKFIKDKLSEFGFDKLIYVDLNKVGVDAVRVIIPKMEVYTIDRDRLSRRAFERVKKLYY

[6] = target: T2, Methanocaldococcus jannaschii YcaO …; test: fluorescence polarisation
[7] = target: T2, Methanocaldococcus jannaschii YcaO …; test: fluorescence polarisation; remark: listed apart in the source
[8] = target: T3, MjYcaO W180F variant (Methanocaldococcus jannaschii, UniProt Q58494 1-385, W180F); test: fluorescence polarisation
T3 sequence: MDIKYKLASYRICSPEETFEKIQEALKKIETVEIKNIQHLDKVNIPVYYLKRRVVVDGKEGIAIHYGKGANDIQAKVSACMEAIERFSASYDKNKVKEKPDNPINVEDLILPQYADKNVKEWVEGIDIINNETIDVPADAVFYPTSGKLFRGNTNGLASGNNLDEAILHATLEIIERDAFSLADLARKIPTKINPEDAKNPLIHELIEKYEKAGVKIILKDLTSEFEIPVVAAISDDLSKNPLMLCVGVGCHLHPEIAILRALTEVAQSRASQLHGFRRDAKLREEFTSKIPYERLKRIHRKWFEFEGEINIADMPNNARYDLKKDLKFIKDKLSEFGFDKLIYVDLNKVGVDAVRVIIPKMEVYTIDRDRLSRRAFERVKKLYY

[9] = target: T4, MjYcaO W303A variant (Methanocaldococcus jannaschii, UniProt Q58494 1-385, W303A); test: fluorescence polarisation
T4 sequence: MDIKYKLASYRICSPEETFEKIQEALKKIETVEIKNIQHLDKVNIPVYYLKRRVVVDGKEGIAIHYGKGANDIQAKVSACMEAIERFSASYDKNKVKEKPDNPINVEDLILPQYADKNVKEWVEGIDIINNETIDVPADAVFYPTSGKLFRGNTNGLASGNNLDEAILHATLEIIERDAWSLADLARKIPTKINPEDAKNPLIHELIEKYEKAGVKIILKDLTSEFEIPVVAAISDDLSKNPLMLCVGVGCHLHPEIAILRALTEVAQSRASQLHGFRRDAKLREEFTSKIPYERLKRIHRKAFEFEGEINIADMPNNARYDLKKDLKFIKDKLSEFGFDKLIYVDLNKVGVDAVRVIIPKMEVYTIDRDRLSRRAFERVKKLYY

[10] = target: T5, MjYcaO Y66A variant (Methanocaldococcus jannaschii, UniProt Q58494 1-385, Y66A); test: fluorescence polarisation
T5 sequence: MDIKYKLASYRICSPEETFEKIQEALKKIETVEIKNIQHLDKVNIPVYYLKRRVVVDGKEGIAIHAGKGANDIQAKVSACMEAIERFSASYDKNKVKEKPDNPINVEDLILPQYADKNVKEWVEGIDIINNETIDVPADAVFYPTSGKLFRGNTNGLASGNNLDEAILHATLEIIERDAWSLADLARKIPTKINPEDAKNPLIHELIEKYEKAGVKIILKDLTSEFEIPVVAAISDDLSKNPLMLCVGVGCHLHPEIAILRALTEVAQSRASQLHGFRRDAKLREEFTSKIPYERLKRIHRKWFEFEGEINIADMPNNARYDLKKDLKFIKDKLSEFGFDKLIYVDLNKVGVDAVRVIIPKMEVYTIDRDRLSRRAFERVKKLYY

[11] = target: T6, MjYcaO Y66L variant (Methanocaldococcus jannaschii, UniProt Q58494 1-385, Y66L); test: fluorescence polarisation
T6 sequence: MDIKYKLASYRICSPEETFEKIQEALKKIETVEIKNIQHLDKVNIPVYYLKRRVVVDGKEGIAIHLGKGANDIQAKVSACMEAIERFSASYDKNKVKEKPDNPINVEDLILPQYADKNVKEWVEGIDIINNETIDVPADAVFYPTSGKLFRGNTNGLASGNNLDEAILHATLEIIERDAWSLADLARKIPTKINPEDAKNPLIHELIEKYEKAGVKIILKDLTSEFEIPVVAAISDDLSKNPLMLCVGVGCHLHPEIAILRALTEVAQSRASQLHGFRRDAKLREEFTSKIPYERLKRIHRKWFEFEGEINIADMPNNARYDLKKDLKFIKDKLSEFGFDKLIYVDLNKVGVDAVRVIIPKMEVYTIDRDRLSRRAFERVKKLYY

[12] = target: T7, MjYcaO Y66F variant (Methanocaldococcus jannaschii, UniProt Q58494 1-385, Y66F); test: fluorescence polarisation
T7 sequence: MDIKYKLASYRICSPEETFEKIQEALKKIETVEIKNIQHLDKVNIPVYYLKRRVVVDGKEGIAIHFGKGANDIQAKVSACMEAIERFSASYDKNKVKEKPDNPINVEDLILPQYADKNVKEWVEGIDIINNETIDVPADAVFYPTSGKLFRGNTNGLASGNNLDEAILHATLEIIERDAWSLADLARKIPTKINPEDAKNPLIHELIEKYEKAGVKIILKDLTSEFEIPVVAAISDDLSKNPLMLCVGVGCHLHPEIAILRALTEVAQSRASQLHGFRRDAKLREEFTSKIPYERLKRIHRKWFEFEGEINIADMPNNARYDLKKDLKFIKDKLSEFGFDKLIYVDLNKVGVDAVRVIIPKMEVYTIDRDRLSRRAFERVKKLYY

[13] = target: T8, MjYcaO W180V variant (Methanocaldococcus jannaschii, UniProt Q58494 1-385, W180V); test: fluorescence polarisation
T8 sequence: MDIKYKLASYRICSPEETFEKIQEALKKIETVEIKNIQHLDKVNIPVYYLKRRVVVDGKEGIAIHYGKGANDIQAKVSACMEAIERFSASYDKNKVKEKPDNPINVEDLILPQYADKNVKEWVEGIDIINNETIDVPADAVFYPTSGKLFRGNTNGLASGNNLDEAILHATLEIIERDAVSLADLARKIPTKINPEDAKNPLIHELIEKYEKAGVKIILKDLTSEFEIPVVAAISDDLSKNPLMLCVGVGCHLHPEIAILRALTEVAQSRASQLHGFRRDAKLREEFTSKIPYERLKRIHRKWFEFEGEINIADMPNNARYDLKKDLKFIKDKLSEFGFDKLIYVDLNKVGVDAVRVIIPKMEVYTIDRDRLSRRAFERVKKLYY

[14] = target: T9, MjYcaO Y66G variant (Methanocaldococcus jannaschii, UniProt Q58494 1-385, Y66G); test: fluorescence polarisation
T9 sequence: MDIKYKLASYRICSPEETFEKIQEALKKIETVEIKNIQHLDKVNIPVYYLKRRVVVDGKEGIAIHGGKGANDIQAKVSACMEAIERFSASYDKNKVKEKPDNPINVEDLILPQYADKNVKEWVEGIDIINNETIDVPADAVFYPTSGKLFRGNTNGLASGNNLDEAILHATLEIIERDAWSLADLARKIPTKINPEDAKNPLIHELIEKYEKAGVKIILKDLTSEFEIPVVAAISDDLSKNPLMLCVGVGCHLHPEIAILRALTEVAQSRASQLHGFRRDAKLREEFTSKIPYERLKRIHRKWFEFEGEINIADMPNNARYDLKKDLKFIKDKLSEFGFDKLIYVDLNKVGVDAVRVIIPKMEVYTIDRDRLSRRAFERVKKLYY

With RLGFYGCDLQD [Y(+1)C 11-mer] the cyclodehydration [1] was “enzyme-dependent conversion to the dehydrated species”, the “cyclodehydration (change of peptide mass)” value [2] was “almost no change” and the “increase in Ki relative to wild-type” value [3] was 2 fold.

In the case of “MBP-tagged MjMcrA peptide, F(-2)A variant”, the fold increase in Ki against the wild-type peptide [4] is reported as 3 fold.

With “MBP-tagged MjMcrA peptide, D(+2)A variant” the fold increase in Ki against the wild-type peptide [4] was 4 fold.

Work on MjMcrA Y(+1)C 11-mer peptide … yielded a fold increase in Ki against the wild-type peptide [4] of 2 fold.

With “MBP-tagged MjMcrA peptide, Leu(-4) to Ala” the fold increase in Ki against the wild-type peptide [4] was > 6 fold.

With “MBP-tagged MjMcrA peptide, Gly(-3) to Ala” the fold increase in Ki against the wild-type peptide [4] was > 6 fold.

Molecule MjMcrA Y(+1)S 11-mer peptide has a fold increase in Ki against the wild-type peptide [4] of 2 fold.

RLGFYGYDLQD [MjMcrA 11-mer peptide RLGFYGYDLQD]: binds [5].

RLGFYGYDLQD (not fully specified (N-terminus); also: FITC label (site not given here)) [FITC-labeled 11-mer MjMcrA peptide RLGFYGYDLQD (without the double Gly linker)]: binds [6].

GGRLGFYGYDLQD (not fully specified (N-terminus); also: FITC label (site not given here)) [FITC-labeled 13-mer MjMcrA peptide GG-RLGFYGYDLQD]: binds [7]; binds [8]; binds [9]. GGRLGFYGYDLQD (not fully specified (N-terminus); also: FITC label (site not given here)) [FITC-labeled 13-mer MjMcrA peptide GG-RLGFYGYDLQD]: binds [10]; binds [11]; binds [12]. GGRLGFYGYDLQD (not fully specified (N-terminus); also: FITC label (site not given here)) [FITC-labeled 13-mer MjMcrA peptide GG-RLGFYGYDLQD]: binds [13]; binds [14].
